Measurements published in patent publication US20230242675A1 (SHANGHAI EPIMAB BIOTHERAPEUTICS, published 2023).
Changes are numbered by the printed parent chain. Names and notes keep the numbering of the source.

B1: HuEM0005-87-1 (antibody, human IgG1, V domains shown)
VH: EVQLVQSGAEVKKPGASVKVSCKASGYTFTDYYINWVRQAPGQGLEWMGETIPNTGGTTYNQKFKARVTMTVDTSTSTVYMELSSLRSEDTAVYYCARYQSGSPFAYWGQGTTVTVSS
VL: DIVMTQSPDSLAVSLGERATINCKASQNVGTAVAWYQQKPGQPPKLLIYSASNRYTGVPDRFTGSGSGTDFTLTISSLQAEDVAVYYCQQHYSTPYTFGGGTKLEIK
notes: also called HuEM0005-87-l
B2: HuEM0005-87-2 (antibody, human IgG1, V domains shown)
VH: B1 VH with M70L
VL: B1 VL
B3: HuEM0005-87-3 (antibody, human IgG1, V domains shown)
VH: B1 VH with M48I, M70L, T74K
VL: B1 VL
B4: HuEM0005-87-6 (antibody, human IgG1, V domains shown)
VH: B1 VH
VL: EIVMTQSPATLSVSPGERATLSCKASQNVGTAVAWYQQKPGQAPRLLIYSASNRYTGIPARFSGSGSGTEFTLTISSLQSEDFAVYYCQQHYSTPYTFGGGTKLEIK
B5: HuEM0005-87-4 (antibody, human IgG1, V domains shown)
VH: B1 VH with T28S, M48I, R67K, V68A, M70L, T74K, V79A
VL: B1 VL
B6: HuEM0005-87-5 (antibody, human IgG1, V domains shown)
VH: B1 VH with T28S, R38K, M48I, R67K, V68A, M70L, V72R, T74K, V79A, S84K
VL: B1 VL
B7: HuEM0005-90-5 (antibody, human IgG1, V domains shown)
VH: EVQLVQSGAEVKKPGASVKVSCKASGYTFTSHSINWVRQATGQGLEWMGYMYIGNGYTEYNEKFKGRVTLTSNTSISTAYMELSSLRSEDTAVYYCAKITPVVAPYVMDYWGQGTSVTVSS
VL: DIQMTQSPSFLSASVGDRVTITCKASQDVGTAVAWYQQKPGKAPKLLIYWASTRHTGVPSRFSGSGSGTEFTLTISSLQPEDFATYYCQQYSSYPYTFGQGTKLEIK
B8: HuEM0005-90-1 (antibody, human IgG1, V domains shown)
VH: B7 VH
VL: B7 VL with M4L
notes: measured without the G55A change
B9: HuEM0005-90-2 (antibody, human IgG1, V domains shown)
VH: B7 VH with M48I, V68A
VL: B7 VL with M4L
B10: HuEM0005-90-3 (antibody, human IgG1, V domains shown)
VH: B7 VH with A24T, L70M
VL: B7 VL with M4L
B11: HuEM0005-90-4 (antibody, human IgG1, V domains shown)
VH: B7 VH with A24T, M48I, V68A
VL: B7 VL with M4L
B12: HuEM0005-90-6 (antibody, human IgG1, V domains shown)
VH: B7 VH with M48I, V68A
VL: B7 VL

What follows are binders tested against T1, human PD-L1/His fusion protein (human, UniProt Q9NZQ7 19-239) (assay: BLI off-rate; test group 1).
T1 sequence (Q9NZQ7 19-239 limits assumed): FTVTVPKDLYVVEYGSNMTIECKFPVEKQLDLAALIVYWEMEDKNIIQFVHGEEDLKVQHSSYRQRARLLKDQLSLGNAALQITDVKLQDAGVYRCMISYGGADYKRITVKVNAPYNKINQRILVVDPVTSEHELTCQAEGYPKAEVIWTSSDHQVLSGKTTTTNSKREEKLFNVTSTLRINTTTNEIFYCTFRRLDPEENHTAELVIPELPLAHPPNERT
Description: (§1) Briefly, antibodies were characterized for affinities and binding kinetics by Octet®RED96 biolayer interferometry (Pall ForteBio LLC). Antibodies were captured by Anti-hIgG Fc Capture (AHC) Biosensors (Pall) at a concentration of 100 nM for 30 seconds. Sensors were then dipped into running buffer (1×pH 7.2 PBS, 0.05% Tween 20, 0.1% BSA) for 60 seconds to check baseline. Binding was measured by dipping sensors into a single concentration of recombinant human PD-L1/His fusion protein (Novoprotein). Dissociation was followed by dipping sensors into running buffer for 1200 seconds. The association and dissociation curves were fitted to a 1:1 Langmuir binding model using ForteBio Data Analysis software (Pall). […] The off-rate ratio serves as a data normalization. Accordingly, in each test group, the off-rate ratios of the humanized antibodies can be compared with that of the chimeric antibody, and the off-rate ratios of each of the humanized antibodies can be compared to one another within all test groups.
For B1, the “Off-Rate Ratio to that of EM0005-87c” value was 64%. With B2 the “Off-Rate Ratio to that of EM0005-87c” value was 54%. B3 was tested, and the “Off-Rate Ratio to that of EM0005-87c” value was 63%. For B4, the “Off-Rate Ratio to that of EM0005-87c” value was 68%. With B5 the “Off-Rate Ratio to that of EM0005-87c” value was 52%. B6 was tested, and the “Off-Rate Ratio to that of EM0005-87c” value was 64%. In the case of B7, the “Off-Rate Ratio to that of EM0005-90c” value is reported as 107%. In the case of B8, the “Off-Rate Ratio to that of EM0005-90c” value is reported as 102%. With B9 the “Off-Rate Ratio to that of EM0005-90c” value was 90%. In the case of B10, the “Off-Rate Ratio to that of EM0005-90c” value is reported as 120%. B11 was tested, and the “Off-Rate Ratio to that of EM0005-90c” value was 97%. With B12 the “Off-Rate Ratio to that of EM0005-90c” value was 100%.

What follows are binders tested against T1, human PD-L1/His fusion protein (assay: BLI Octet RED96, antibody on AHC sensor, single conc. PD-L1/His; test group 1).
Description: as §1
B1 showed a koff of 0.000937 s⁻¹. B2 gave a koff of 0.000797 s⁻¹. B3 was tested, and the koff was 0.000926 s⁻¹. Work on B4 yielded a koff of 0.000998 s⁻¹. In the case of B5, the koff is reported as 0.000768 s⁻¹. B6 showed a koff of 0.000947 s⁻¹. B7 showed a koff of 0.00027 s⁻¹. Binder B8 has a koff of 0.000259 s⁻¹. Binder B9 has a koff of 0.000227 s⁻¹. B10 showed a koff of 0.000304 s⁻¹. B11 gave a koff of 0.000246 s⁻¹. Binder B12 has a koff of 0.000254 s⁻¹.
